± gives the uncertainty stated by the source.
B1: Pituitary-specific positive transcription factor 1, residues 130 to 198; numbered along this chain, P28069 (parent)
chain: RELEKFANEFKVRRIKLGYTQTNVGEALAAVHGSEFSQTTICRFENLQLSFKNACKLKAILSKWLEEAE

Variants of: B1
Assay: abundance fitness (aPCA) (normalised: wild type 0, dead -1); higher = more abundant; growth selection in yeast, the domain comes from the species named
Conditions: Homo sapiens
RELEKFANEFKVRRIKLGYTQTNVGEALAAVHGSEFSQTTICRFENLQLSFKNACKLKAILSKWLEVAE [E67V] showed an abundance fitness of -0.39 ± 0.073.
Work on RELEKFANEFKVRRIKLGYTQTNVGEALAAVHGSEFSQTTICRFENLQLSFKNACKLKAILSKWLEPAE [E67P] yielded an abundance fitness of -0.721 ± 0.26.
RELEKFANEFKVRRIKLGYTQTNVGEALAAVHGSEFSQTTICRFEWLQLSFKNACKLKAILSKWLEEAE [N46W] gave an abundance fitness of -0.851 ± 0.2.
RELEKFANEFKVRRIKLGYTQTNVGEALAACHGSEFSQTTICRFENLQLSFKNACKLKAILSKWLEEAE [V31C] gave an abundance fitness of -0.258 ± 0.097.
With RELEKFANEFKVRRIKLGYTQTNVGEALAAVHGSEFSQTTICRFENLQHSFKNACKLKAILSKWLEEAE [L49H] the abundance fitness was -0.721 ± 0.18.
For RELEKFANEFKVRRIKLGYTQTNVGEALAAVHGSEFSQTTICRFENLQLSFKNACKLKAILSLWLEEAE [K63L], the abundance fitness was -0.3 ± 0.06.
For RELEKFANEYKVRRIKLGYTQTNVGEALAAVHGSEFSQTTICRFENLQLSFKNACKLKAILSKWLEEAE [F10Y], the abundance fitness was -0.518 ± 0.23.
With RELEKFANEFKVRRIKLGYTQTNVGEALAAVHGSEFSQTTICRFENLQLSFKNACKLKAIGSKWLEEAE [L61G] the abundance fitness was -0.757 ± 0.11.
Variant RELEKFANEFKVRRIKLGYTQTNVGEALAAVHGSEFSQTTICRFENLQLSFKNACKLKAIRSKWLEEAE [L61R] has an abundance fitness of -1.04 ± 0.18.
In the case of RELEKFANEFKVRRIKLGYTQTNVGEALAAVHGSEFSQTTICRFENLQLSFKNACKLKAITSKWLEEAE [L61T], the abundance fitness is reported as -0.778 ± 0.18.
Variant RELEKFANEFKVRRIKLGYTQTNVGEALAAVHGSEFSQTTICRFENLQLSFKNACKLKAILSKWHEEAE [L65H] has an abundance fitness of -0.887 ± 0.32.
With RETEKFANEFKVRRIKLGYTQTNVGEALAAVHGSEFSQTTICRFENLQLSFKNACKLKAILSKWLEEAE [L3T] the abundance fitness was -0.867 ± 0.4.
RELEKFANEFKVRRIVLGYTQTNVGEALAAVHGSEFSQTTICRFENLQLSFKNACKLKAILSKWLEEAE [K16V] gave an abundance fitness of -0.812 ± 0.18.
With RELEKFANEFWVRRIKLGYTQTNVGEALAAVHGSEFSQTTICRFENLQLSFKNACKLKAILSKWLEEAE [K11W] the abundance fitness was -0.911 ± 0.28.
Variant RELERFANEFKVRRIKLGYTQTNVGEALAAVHGSEFSQTTICRFENLQLSFKNACKLKAILSKWLEEAE [K5R] has an abundance fitness of -0.117 ± 0.043.
RELEVFANEFKVRRIKLGYTQTNVGEALAAVHGSEFSQTTICRFENLQLSFKNACKLKAILSKWLEEAE [K5V] gave an abundance fitness of -0.278 ± 0.041.
RELEKFANEFKVRRIKLGYTQTNVGEALAAVHGSAFSQTTICRFENLQLSFKNACKLKAILSKWLEEAE [E35A] showed an abundance fitness of -0.097 ± 0.065.
RELEKFANEFKVRRIKLGYTQTNVGEALAAVHGSEFSQTTICRFENLQLSFKHACKLKAILSKWLEEAE [N53H] gave an abundance fitness of 0.233 ± 0.059.
With RELEKFANEFKVRRIKLGYTQTNVGEALAAVHGSEFSQTTICRFENLQLSFRNACKLKAILSKWLEEAE [K52R] the abundance fitness was -0.04 ± 0.061.
Variant RELEKFANEFKMRRIKLGYTQTNVGEALAAVHGSEFSQTTICRFENLQLSFKNACKLKAILSKWLEEAE [V12M] has an abundance fitness of -0.045 ± 0.089.
In the case of RELEKFANEFKERRIKLGYTQTNVGEALAAVHGSEFSQTTICRFENLQLSFKNACKLKAILSKWLEEAE [V12E], the abundance fitness is reported as 0.275 ± 0.063.
Variant RELEKFANEFKVRRIKLGYTPTNVGEALAAVHGSEFSQTTICRFENLQLSFKNACKLKAILSKWLEEAE [Q21P] has an abundance fitness of -0.275 ± 0.092.
Variant RELEKFANEFKVRRIKLGYTQTNVGEALAAVHGSEFSQTTICRFENLQLSFKNACKGKAILSKWLEEAE [L57G] has an abundance fitness of -0.507 ± 0.061.
Work on RELEKFANEFKVRRIKLGYTQTNVGEALAAVHGSEFSQTTICRFENLQLSFKNACKWKAILSKWLEEAE [L57W] yielded an abundance fitness of -0.642 ± 0.18.
Work on RELEKFANEFKVRRIKLGYTQTNVGEALAAVHGSEFSQTTICRFENLQLSFKNACKRKAILSKWLEEAE [L57R] yielded an abundance fitness of -0.584 ± 0.079.
Work on RELEKFANEFKVRLIKLGYTQTNVGEALAAVHGSEFSQTTICRFENLQLSFKNACKLKAILSKWLEEAE [R14L] yielded an abundance fitness of -0.72 ± 0.18.
Variant RELEKFANEFKVRYIKLGYTQTNVGEALAAVHGSEFSQTTICRFENLQLSFKNACKLKAILSKWLEEAE [R14Y] has an abundance fitness of -0.745 ± 0.2.
With RSLEKFANEFKVRRIKLGYTQTNVGEALAAVHGSEFSQTTICRFENLQLSFKNACKLKAILSKWLEEAE [E2S] the abundance fitness was -0.443 ± 0.069.
RELEKFANEFKVRRIKLGYTQTNVSEALAAVHGSEFSQTTICRFENLQLSFKNACKLKAILSKWLEEAE [G25S] showed an abundance fitness of 0.198 ± 0.045.
In the case of RELEKFANEFKVRRIKLGYTQQNVGEALAAVHGSEFSQTTICRFENLQLSFKNACKLKAILSKWLEEAE [T22Q], the abundance fitness is reported as 0.209 ± 0.1.
For RELEKFANQFKVRRIKLGYTQTNVGEALAAVHGSEFSQTTICRFENLQLSFKNACKLKAILSKWLEEAE [E9Q], the abundance fitness was -0.188 ± 0.084.
RELEKCANEFKVRRIKLGYTQTNVGEALAAVHGSEFSQTTICRFENLQLSFKNACKLKAILSKWLEEAE [F6C] gave an abundance fitness of -0.992 ± 0.17.
Work on RELEKFANEFKVRRIKLGYTQTNVGEALAAVHGSEFSQTTICRFENLQLHFKNACKLKAILSKWLEEAE [S50H] yielded an abundance fitness of -0.168 ± 0.14.
With RELEKFANEFKVRRYKLGYTQTNVGEALAAVHGSEFSQTTICRFENLQLSFKNACKLKAILSKWLEEAE [I15Y] the abundance fitness was -0.761 ± 0.16.
Work on RELEKFANEFKVRRIKLGYTQTNVGEALAAVHGSEFSQTTICRFENLQLSFKNACKLQAILSKWLEEAE [K58Q] yielded an abundance fitness of -0.019 ± 0.088.
RELEKFAYEFKVRRIKLGYTQTNVGEALAAVHGSEFSQTTICRFENLQLSFKNACKLKAILSKWLEEAE [N8Y] gave an abundance fitness of -0.094 ± 0.15.
For RELEKFAQEFKVRRIKLGYTQTNVGEALAAVHGSEFSQTTICRFENLQLSFKNACKLKAILSKWLEEAE [N8Q], the abundance fitness was 0.12 ± 0.17.
In the case of RELEKFANEFKVRRIKLGQTQTNVGEALAAVHGSEFSQTTICRFENLQLSFKNACKLKAILSKWLEEAE [Y19Q], the abundance fitness is reported as -0.149 ± 0.14.
RELEKFANEFKVRRIKLGYTQTNVGEALAAVHGSEFSQTTICYFENLQLSFKNACKLKAILSKWLEEAE [R43Y] gave an abundance fitness of -0.846 ± 0.47.

From the Human Domainome abundance scans (Beltran et al. 2025)
